Results from patent publication US20240124560A1.

Assays:
Assay in all cases: cell-based or functional assay
[1] = biological target: HIV-1 Env of isolate NIH-091_231965.c01 (HIV-1)
[2] = biological target: HIV-1 Env of pseudovirus NIH-055_CNE58 (HIV-1)
[3] = biological target: HIV-1 Env of pseudovirus NIH-118_T255.34 (HIV-1)
[4] = biological target: HIV-1 Env of pseudovirus NIH-046_1394C9G1(Rev.) (HIV-1)
[5] = biological target: HIV-1 Env of pseudovirus NIH-081_BJOX028000.10.3 (HIV-1)
[6] = biological target: HIV-1 Env of NIH-072_R3265.c06 (HIV-1)
[7] = biological target: HIV-1 Env of NIH-008_WEAU.d15.410.787 (HIV-1)
[8] = biological target: HIV-1 Env of pseudovirus NAC_ADA (HIV-1)
[9] = biological target: HIV-1 Env of NIH-104_3103.v3.c10 (HIV-1)
[10] = biological target: HIV-1 Env of pseudovirus NIH-057_MS208.A1 (HIV-1)
[11] = biological target: HIV-1 Env of NAC_JRCSF (HIV-1) (UniProt P20871)
HIV-1 Env of NAC_JRCSF (HIV-1), sequence (P20871 32-848 limits assumed): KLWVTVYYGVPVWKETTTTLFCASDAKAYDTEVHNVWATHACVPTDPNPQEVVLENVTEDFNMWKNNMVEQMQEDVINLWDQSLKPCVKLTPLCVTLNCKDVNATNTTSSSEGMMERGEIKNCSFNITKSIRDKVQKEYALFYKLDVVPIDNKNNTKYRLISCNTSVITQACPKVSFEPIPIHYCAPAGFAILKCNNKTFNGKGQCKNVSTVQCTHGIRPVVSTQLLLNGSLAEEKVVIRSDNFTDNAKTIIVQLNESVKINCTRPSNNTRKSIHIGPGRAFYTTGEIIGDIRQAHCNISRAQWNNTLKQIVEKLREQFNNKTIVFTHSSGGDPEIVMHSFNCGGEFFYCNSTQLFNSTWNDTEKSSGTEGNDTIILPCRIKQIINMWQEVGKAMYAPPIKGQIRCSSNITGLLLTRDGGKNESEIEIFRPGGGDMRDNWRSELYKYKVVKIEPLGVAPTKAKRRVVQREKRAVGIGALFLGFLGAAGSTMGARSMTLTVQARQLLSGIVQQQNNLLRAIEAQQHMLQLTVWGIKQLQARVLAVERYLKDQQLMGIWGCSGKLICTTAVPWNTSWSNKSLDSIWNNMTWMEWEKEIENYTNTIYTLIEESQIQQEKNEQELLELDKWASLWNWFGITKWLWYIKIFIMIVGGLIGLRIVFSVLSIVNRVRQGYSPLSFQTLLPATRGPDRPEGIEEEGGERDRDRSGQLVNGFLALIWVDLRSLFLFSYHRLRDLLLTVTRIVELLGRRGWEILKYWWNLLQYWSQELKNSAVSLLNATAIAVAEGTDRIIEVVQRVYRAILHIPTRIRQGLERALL

[12] = biological target: HIV-1 Env of pseudovirus NAC_92BR020 (HIV-1)
[13] = biological target: HIV-1 Env of NIH-035_Ce1176 A3 (HIV-1)
[14] = biological target: HIV-1 Env of pseudovirus NIH-074_C4118.c09 (HIV-1)
[15] = biological target: HIV-1 Env of pseudovirus NIH-027_CAP45.G3 (HIV-1)
[16] = biological target: HIV-1 Env of NIH-071_R1166.c01 (HIV-1)
[17] = biological target: HIV-1 Env of NIH-055_CNE58 (HIV-1)
[18] = biological target: HIV-1 Env of pseudovirus NIH-042_ZM246F.D5 (HIV-1)
[19] = biological target: HIV-1 Env of pseudovirus NIH-083_P0402 c2 11 (clade G) (HIV-1)
[20] = biological target: HIV-1 Env of pseudovirus NIH-002_QHO692 .42 (HIV-1)
[21] = biological target: HIV-1 Env of pseudovirus NAC_JRCSF (HIV-1) (UniProt P20871)
HIV-1 Env of pseudovirus NAC_JRCSF (HIV-1), sequence (P20871 32-848): as the sequence (P20871 32-848 limits assumed) above

[22] = biological target: HIV-1 Env of pseudovirus NIH-026_ZM135M.PL10a (HIV-1)
[23] = biological target: HIV-1 Env of NIH-056_Q168ENVa2 (HIV-1)
[24] = biological target: HIV-1 Env of pseudovirus NIH-029_HIV-001428.2.42 (HIV-1)
[25] = biological target: HIV-1 Env of NIH-026_ZM135M.PL10a (HIV-1)
[26] = biological target: HIV-1 Env of NIH-117_T278.5 (HIV-1)
[27] = biological target: HIV-1 Env of pseudovirus NIH-089_3016.v5.c45 (clade D) (HIV-1)
[28] = biological target: HIV-1 Env of isolate NIH-084_X1254 c3 (HIV-1)
[29] = biological target: HIV-1 Env of NIH-021_ZM214M.PL15 (HIV-1)
[30] = biological target: HIV-1 Env of isolate NIH-089_3016.v5.c45 (HIV-1)
[31] = biological target: HIV-1 Env of pseudovirus NIH-053_CNE52 (HIV-1)
[32] = biological target: HIV-1 Env of NIH-054_CNE53 (HIV-1)
[33] = biological target: HIV-1 Env of pseudovirus NIH-045_7030102001E5(Rev.) (HIV-1)
[34] = biological target: HIV-1 Env of pseudovirus NIH-104_3103.v3.c10 (HIV-1)
[35] = biological target: HIV-1 Env of pseudovirus NIH-095_6480.v4.c25 (HIV-1)
[36] = biological target: HIV-1 Env of pseudovirus NIH-050_CNE21 (HIV-1)
[37] = biological target: HIV-1 Env of pseudovirus NIH-071_R1166.c01 (HIV-1)
[38] = biological target: HIV-1 Env of NAC_89.6 (HIV-1)
[39] = biological target: HIV-1 Env of pseudovirus NIH-066_191084 B7.19 (HIV-1)
[40] = biological target: HIV-1 Env of pseudovirus NIH-102_6545.v4.c1 (HIV-1)
[41] = biological target: HIV-1 Env of pseudovirus NIH-034_Ce0393 C3 (HIV-1)
[42] = biological target: HIV-1 Env of NIH-039_Ce2060 G9 (HIV-1)
[43] = biological target: HIV-1 Env of pseudovirus NIH-085_X2088 c9 (clade G) (HIV-1)
[44] = biological target: HIV-1 Env of NIH-010_1054.07.TC4.1499 (HIV-1)
[45] = biological target: HIV-1 Env of pseudovirus NIH-068_620345.c01 (HIV-1)

Work on 4E10 (antibody) yielded an IC80 (µg/ml), TZM-bl pseudovirus neutralization [1] greater than 50 µg/mL, a neutralization IC50 [2] of 0.563 µg/mL and a neutralization IC50 [3] of 0.326 µg/mL. For the same substance, the neutralization IC50 [4] was 2.58 µg/mL, the neutralization IC50 [5] was 0.45 µg/mL and the IC80 neutralization [6] was 2 µg/mL. For the same substance, the IC80 neutralization [7] was 2.59 µg/mL, the neutralization IC50 [8] was 0.836 µg/mL and the IC80 neutralization [9] was 32.4 µg/mL. For the same substance, the neutralization IC50 [10] was 0.678 µg/mL, the IC80 neutralization [11] was 3.92 µg/mL and the neutralization IC50 [12] was 2.57 µg/mL. The IC80 neutralization [13] was 7.36 µg/mL, the neutralization IC50 [14] was 0.322 µg/mL and the neutralization IC50 [15] was 0.886 µg/mL. It also gave an IC80 neutralization [16] of 1.77 µg/mL, an IC80 neutralization [17] of 2.24 µg/mL and a neutralization IC50 [18] of 1.68 µg/mL. For the same substance, the IC50 (µg/ml), TZM-bl cell neutralization assay, pseudovirus [19] was 0.084 µg/mL, the neutralization IC50 [20] was 6.19 µg/mL and the neutralization IC50 [21] was 0.823 µg/mL. The neutralization IC50 [22] was 0.133 µg/mL, the IC80 neutralization [23] was 15.1 µg/mL and the neutralization IC50 [24] was 5.54 µg/mL. The IC80 neutralization [25] was 0.936 µg/mL, the IC80 neutralization [26] was 6.03 µg/mL and the IC50 (µg/ml), TZM-bl cell neutralization assay, pseudovirus [27] was 0.915 µg/mL. The IC80 (µg/ml), TZM-bl pseudovirus neutralization [28] was 11.8 µg/mL, the IC80 neutralization [29] was 21.2 µg/mL and the IC80 (µg/ml), TZM-bl pseudovirus neutralization [30] was 3.73 µg/mL. It also gave a neutralization IC50 [31] of 0.954 µg/mL, an IC80 neutralization [32] of 1.52 µg/mL and a neutralization IC50 [33] of 3.41 µg/mL. It also gave a neutralization IC50 [34] of 8.11 µg/mL, a neutralization IC50 [35] of 0.561 µg/mL and a neutralization IC50 [36] of 0.513 µg/mL. It also gave a neutralization IC50 [37] of 0.383 µg/mL, an IC80 neutralization [38] of 10.9 µg/mL and a neutralization IC50 [39] of 1.23 µg/mL. The neutralization IC50 [40] was 2.35 µg/mL, the neutralization IC50 [41] was 0.606 µg/mL and the IC80 neutralization [42] was 5.1 µg/mL. It also gave an IC50 (µg/ml), TZM-bl cell neutralization assay, pseudovirus [43] greater than 50 µg/mL, an IC80 neutralization [44] of 5.43 µg/mL and a neutralization IC50 [45] of 0.663 µg/mL.
PGZL1 (antibody) showed an IC80 (µg/ml), TZM-bl pseudovirus neutralization [1] greater than 50 µg/mL, a neutralization IC50 [2] of 3.55 µg/mL and a neutralization IC50 [3] of 3.35 µg/mL. For the same substance, the neutralization IC50 [4] was 7.87 µg/mL, the neutralization IC50 [5] was 5.16 µg/mL and the IC80 neutralization [6] was greater than 50 µg/mL. The IC80 neutralization [7] was 39.6 µg/mL, the neutralization IC50 [8] was 5.36 µg/mL and the IC80 neutralization [9] was greater than 50 µg/mL. For the same substance, the neutralization IC50 [10] was 10.1 µg/mL, the IC80 neutralization [11] was greater than 50 µg/mL and the neutralization IC50 [12] was greater than 50 µg/mL. The IC80 neutralization [13] was greater than 50 µg/mL, the neutralization IC50 [14] was 8.37 µg/mL and the neutralization IC50 [15] was 18.3 µg/mL. For the same substance, the IC80 neutralization [16] was 19.5 µg/mL, the IC80 neutralization [17] was 14.5 µg/mL and the neutralization IC50 [18] was 19.9 µg/mL. The IC50 (µg/ml), TZM-bl cell neutralization assay, pseudovirus [19] was 8.29 µg/mL, the neutralization IC50 [20] was 42 µg/mL and the neutralization IC50 [21] was 13.4 µg/mL. The neutralization IC50 [22] was 0.296 µg/mL, the IC80 neutralization [23] was greater than 50 µg/mL and the neutralization IC50 [24] was greater than 50 µg/mL. The IC80 neutralization [25] was 2.08 µg/mL, the IC80 neutralization [26] was greater than 50 µg/mL and the IC50 (µg/ml), TZM-bl cell neutralization assay, pseudovirus [27] was 2.4 µg/mL. For the same substance, the IC80 (µg/ml), TZM-bl pseudovirus neutralization [28] was greater than 50 µg/mL, the IC80 neutralization [29] was greater than 50 µg/mL and the IC80 (µg/ml), TZM-bl pseudovirus neutralization [30] was 10.6 µg/mL. For the same substance, the neutralization IC50 [31] was 24.3 µg/mL, the IC80 neutralization [32] was 23.9 µg/mL and the neutralization IC50 [33] was 49.6 µg/mL. For the same substance, the neutralization IC50 [34] was greater than 50 µg/mL, the neutralization IC50 [35] was 15 µg/mL and the neutralization IC50 [36] was 4.23 µg/mL. The neutralization IC50 [37] was 4.87 µg/mL, the IC80 neutralization [38] was greater than 50 µg/mL and the neutralization IC50 [39] was 30.9 µg/mL. It also gave a neutralization IC50 [40] greater than 50 µg/mL, a neutralization IC50 [41] of 13.5 µg/mL and an IC80 neutralization [42] greater than 50 µg/mL. It also gave an IC50 (µg/ml), TZM-bl cell neutralization assay, pseudovirus [43] greater than 50 µg/mL, an IC80 neutralization [44] of 20.2 µg/mL and a neutralization IC50 [45] of 12.6 µg/mL.
For VRC01 (antibody), the IC80 (µg/ml), TZM-bl pseudovirus neutralization [1] was 0.743 µg/mL, the neutralization IC50 [2] was 0.083 µg/mL and the neutralization IC50 [3] was 0.229 µg/mL. For the same substance, the neutralization IC50 [4] was 0.28 µg/mL, the neutralization IC50 [5] was 0.141 µg/mL and the IC80 neutralization [6] was 0.502 µg/mL. It also gave an IC80 neutralization [7] of 0.306 µg/mL, a neutralization IC50 [8] of 0.314 µg/mL and an IC80 neutralization [9] of 6.21 µg/mL. It also gave a neutralization IC50 [10] of 0.063 µg/mL, an IC80 neutralization [11] of 0.69 µg/mL and a neutralization IC50 [12] of 0.059 µg/mL. It also gave an IC80 neutralization [13] of 4.99 µg/mL, a neutralization IC50 [14] of 0.05 µg/mL and a neutralization IC50 [15] of 1.92 µg/mL. The IC80 neutralization [16] was 1.95 µg/mL, the IC80 neutralization [17] was 0.331 µg/mL and the neutralization IC50 [18] was 10.7 µg/mL. The IC50 (µg/ml), TZM-bl cell neutralization assay, pseudovirus [19] was 0.04 µg/mL, the neutralization IC50 [20] was 1.96 µg/mL and the neutralization IC50 [21] was 0.172 µg/mL. It also gave a neutralization IC50 [22] of 0.102 µg/mL, an IC80 neutralization [23] of 0.218 µg/mL and a neutralization IC50 [24] of 0.019 µg/mL. For the same substance, the IC80 neutralization [25] was 0.379 µg/mL, the IC80 neutralization [26] was greater than 50 µg/mL and the IC50 (µg/ml), TZM-bl cell neutralization assay, pseudovirus [27] was 0.058 µg/mL. For the same substance, the IC80 (µg/ml), TZM-bl pseudovirus neutralization [28] was 0.149 µg/mL, the IC80 neutralization [29] was 2.42 µg/mL and the IC80 (µg/ml), TZM-bl pseudovirus neutralization [30] was 0.223 µg/mL. The neutralization IC50 [31] was 0.142 µg/mL, the IC80 neutralization [32] was 0.166 µg/mL and the neutralization IC50 [33] was 0.38 µg/mL. It also gave a neutralization IC50 [34] of 1.53 µg/mL, a neutralization IC50 [35] of 0.014 µg/mL and a neutralization IC50 [36] of 0.212 µg/mL. The neutralization IC50 [37] was 0.488 µg/mL, the IC80 neutralization [38] was 3.3 µg/mL and the neutralization IC50 [39] was 0.049 µg/mL. It also gave a neutralization IC50 [40] greater than 50 µg/mL, a neutralization IC50 [41] of 0.37 µg/mL and an IC80 neutralization [42] of 0.45 µg/mL. For the same substance, the IC50 (µg/ml), TZM-bl cell neutralization assay, pseudovirus [43] was greater than 50 µg/mL, the IC80 neutralization [44] was 3.62 µg/mL and the neutralization IC50 [45] was greater than 50 µg/mL.
